The values that follow are results of earlier work, collected in patent publication US20240285756A1, “METHOD AND COMPOSITION FOR INDUCING TOLERANCE” (ZELARION MALTA LIMITED, priority 2021, published 2024).

For the data set, the target named is T1, CD2 (Homo sapiens, UniProt P06729).
T1 sequence (P06729 25-351): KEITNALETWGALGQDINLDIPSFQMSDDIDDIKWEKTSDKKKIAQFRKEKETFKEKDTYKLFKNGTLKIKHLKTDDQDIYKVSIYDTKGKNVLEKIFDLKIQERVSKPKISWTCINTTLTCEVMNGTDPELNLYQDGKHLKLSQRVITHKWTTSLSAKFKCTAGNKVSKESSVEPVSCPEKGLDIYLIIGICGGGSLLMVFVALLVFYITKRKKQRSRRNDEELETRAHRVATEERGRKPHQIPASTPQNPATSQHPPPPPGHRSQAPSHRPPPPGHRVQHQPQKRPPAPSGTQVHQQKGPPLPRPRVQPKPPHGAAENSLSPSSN
As to conditions: literature value, Branco et al., Transplantation 1999; assay not further specified.

B1: siplizumab: humanized IgG1 kappa monoclonal antibody against human CD2; humanized version of rat antibody BTI-322 (antibody, V domains shown)
VH: QVQLVQSGAEVQRPGASVKVSCKASGYIFTEYYMYWVRQAPGQGLELVGRIDPEDGSIDYVEKFKKKVTLTADTSSSTAYMELSSLTSDDTAVYYCARGKFNYRFAYWGQGTLVTVSS
VL: DVVMTQSPPSLLVTLGQPASISCRSSQSLLHSSGNTYLNWLLQRPGQSPQPLIYLVSKLESGVPDRFSGSGSGTDFTLKISGVEAEDVGVYYCMQFTHYPYTFGQGTKLEIK
By IC50 is commonly meant the point on the concentration scale where inhibition reaches its midpoint. For the molecule B1, the IC50 is roughly 1 nM.
